From the nanobody polyreactivity screen of Harvey et al. (2022)

Assay: yeast display, Sf9 membrane polyspecificity reagent, FACS + sequencing; frameworks hold sequencing errors
Summary of the method: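 After 36–48 hours of galactose induction, yeast (Saccharomyces cerevisiae BJ5465) displaying a synthetic nanobody library were stained at 4 °C for 1 hour with 10% biotinylated, detergent-solubilized Sf9 membrane reagent. Streptavidin microbeads enriched the stained cells before FACS sorting into low and high (top ~1%) gates on anti-HA and streptavidin fluorescence. Each clone's polyreactivity label reflects its gate of origin.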

Row | Sequence | polyreactivity (PSR sort gate)
1 | QDQLVQSGGGLVQAGGSLRLSCDASGGMFDSNAMGRYRQPPGKERELVAAISDSGGSTYYADSVKGRFTISRDNAKNTVYLQMNSLKPEDTAVYYCAGDSDYHFVNYRFGMDYWGQGTQVTVSS | low polyreactivity
2 | QDQLVVSGGGLFQAVGSLRLICAASGIFRSYAMGWYRQAPGKERELVAAITGGASGTYYADSVKGRFTISRDNAKNTVYLQMNSLKPEDTAVYFCAAVNRVYFPFRLQVIYGSWGQGTQVTVSS | high polyreactivity
3 | QDQRVESGGGLVQAGGSLRLSCAASGITLEFYAMGWYRQAPGNERELVARIRSGGSTNYAVSVKGRFTISRDNAKNTVYLQMNSLKPDDTAVYYCAAYLRTDRYGYWGQGTQVTVSS | high polyreactivity
4 | QDQRVESGGGLVQAGGSLRLSCAASGRIFGTYTMGWYRQAPGKERELVAAITTGGITNYADSVKGRFTISRDNAKNTVYLQMYSLKPEDTAVYYCNARWDYGAYEYWGQGTQVTVSS | low polyreactivity
5 | QDQVVESGGGVVQAGGSLRLICAAYGSTLRYYDMGWYRQAPGKERELVAAISRGCSTYYADSVKGRFTISRDNAKNTVYLLMNSLKPEETAVFYCNKEYPSSYEYDYWGQGTQVTVSS | low polyreactivity
6 | QEHLVESGGGLDQAGGRLRLSCAASGSIFAAYAMGWYRHAPGKERELVAAIKWTDGSTYYADSVKGRFTISRDIAMNTVYLQMNSLKPEDTAVYYCIRRQYGRKKQYDYWVQGTQVTVSS | high polyreactivity
7 | QEQHVESGGGLVQAGGSLRLSSAASVNIIGFYAKGWYREAPGKESEFVAAISFGTDRTYYADSVKGRFTISRENAKNTVYLQMNSLKPEDTALYYCNRRCNNGVRYGECDYWGQGTQVTVSS | high polyreactivity
8 | QEQLQECGGGLVQAGGSLRLSCAASGNVFDADIMGWYRQAPGKERELVASVTDGGSTNYADSVKGRFTFSRDIAKNTVYLQMNSLKPEDTAVYYCAAIVYPDILTYFDYDYDYFYWGQGTQVTVGS | low polyreactivity
9 | QEQLQERGGGLVQAGGSLRLSCAASGSIFKVVDMGLYRQAPAKEREFVATIGEGGNTYYADSVKGRFTISRDNAKNTVYLQMNSLKPEDTAVYFYAVVLGTYYRYTYWGQGTQVTVSS | low polyreactivity
10 | QEQLQESCGGLVLAGGSLRLSCASSGSISAQAYMGWDRQAPGKEREHVAGINYGDNTNYADSVKGRFTISRDNEHRVSADEQPETGRYRGVLLRGFLELFYYYIYWGQGTQVTVSS | high polyreactivity
11 | QEQLQESGGGLVKAGGSLRLSCAASGNISPRDAMGWYRQAPGEERDLVASNAYSAITYYADGVKGRYTISRDNAKNTVYVQMNSLKPEDTDVYYCEFYQFTYPVFPAYWGQGTQVTVSS | low polyreactivity
12 | QEQLQESGGGLVLAGGSLRLSCSASGNISVYGSMGWYRQAPGKELEFVATIDPGTNTNYADSVKDRFTISRDNAKNTVYLQMNSLKPEDRAVYYCAVEAGSDWPFRYWGQGTQVTVSS | low polyreactivity
13 | QEQLQVSGGHLVQAGGSLRLSCAASGTIYGLTSMGWYRQAPGKEREFVAAITDGGNTNYADSVKGRFTISRDNAKKTVYLLMFCLKPEDTAVYYCAVLFSDDAYYAYWCQGTQVTVSS | low polyreactivity
14 | QEQLVESGAGLVQAGGSLRLSCAASGSIFTLYGMGRYRQAPGKERELVAAITWSGGRTYYADSVKGRFTISRDNAKNTVYLQMNSLKPEDTAVYYCAAYRYVSWYYPDDYWGQGTQVTVSS | high polyreactivity
15 | QEQLVESGGGLDQAGGSLRLSCAASGSTFSGYALAWYRQAPGKERELVAAISWRGVRTYYADSVKGRFSISRDNAKNRVYLQMNSLKPEDNAVYYCAAVGYITKEFYWGQGTKVTVSS | high polyreactivity
16 | QEQLVESGGGLDQAGGSLRLSCAASGYTFVNYAMGWYRQAPGKERELVAAITSRGSSTYYADSVKGRFTISRDNAKNTVYLQMNSLKPEDTAVYYCAAYSSSLQGGYWGQGTQVTVSS | high polyreactivity
17 | QEQLVESGGGLVQAGGSLRLSCAASGFTFYFNAMGWYRQAPGKERELVAGITSDGITYYADSVKGRFTISRDNANNTVYLQMNSLKPEDTAVYYCAARKLEWDIKNDYCGQGTQVTVSS | low polyreactivity
18 | QEQLVESGGGLVQAGGSLRLTCAASGRTFFRYARGWYRQAPGKEREVVAAISSGGSTYYADTVKGRFTISRDNAKNTVYLQMNSLKPEDTAVYYCATRNYRLWPYVSVAYDYCGQGTQVTVSS | high polyreactivity
19 | QEQQQESGGGLVQAGGSQRLSCAASGYIFYFQYMGWYRQAPGKEREFVAAISDGANTNYADSVKGRFTISRDNAINTEYLQMNSLKPEDTAVYYCAVYADENYYYIYWGQGTQVTVSS | low polyreactivity
20 | QFHLVESGGGLVHAGGSLRLSCAASGNIFPPNTMGWYRQAPGKATELVAVITWSDGGTYADSVKGRFTISRDNAKKTVYLQMNSLKPEDTAVYYCNADYYFAAPKGEYTAWYDYWGKGTQVTVSS | low polyreactivity
21 | QFHLVESGGGLVQAGGSLRLSCAASGRIFSEYAMGWYRQAHGKEMELVASISTSGGSTYYADSVKGRFTISRDNAKNTVYLQKYSLKPEDTEVYYCNVAYYRYPSYTYGYDHWGQGTQVTVSS | high polyreactivity

Row | Sequence | polyreactivity (PSR sort gate)
22 | QFHLVESGGGLVQAGGSLRLSCAAYGIIFYSYTMGWYRQAPGKERELVAAISRSGGSTYYADSVKGRFTISRDNAKNTVYLQMNSLKPEDTAVYYCAQVGNTAGYDYWGQGSQVTVSS | high polyreactivity
23 | QFQIVDSLEGLVQEAGTLRLSSAASGSIFYRYAKGGYRQAPRKERELVATITSSGGRTYYADSVKGRFTISRDNAKNTVYLQMNSLKPEDTAVNYCKPRDWGRTRGGGYPWLYRYDYWGQGTQVTVSS | low polyreactivity
24 | QFQIVESGGGLVQAGGSLRLSCDASGSIFTWYAMGWYRQAPGKERELVAAITRGGSTYADSVKGRFTISRDNAKNSVYLQMNSLKPEDTAVYYCNAVYGVYDFNYWGQGTQVTVSP | low polyreactivity
25 | QFQLEESGGGLVQAGGSLRLSCAASGSTFSSYVMGWYRQAPGKERELVAAISSIGGSTYYADSVKGRFTISRDNAKNTVYLQMNSLKPEDTAVYYCAAEPPGSTYEGGYLGQGTQVTVSS | low polyreactivity
26 | QFQLVDSGGGLVHAGGSRSLSCADSGLIFHNNAMGWYRQAPGKEREFVARITRSGGTTYYADSVKGRFTISRDNAKNTVYLQMNSLKPEDTAVYYCAAEQSVSFLVFTGFKFDYWGQGTHVTVSS | low polyreactivity
27 | QFQLVDSGGGLVQAGGSLRLSCAASGRTFWFYGMGWYRQAPGKEREFVARISGSGGSKYYADSVKGRFTITRDNAKNTVYFQMNSLKPEDTAVYYCAKDNRYPYPSGLDYWGQGTQVTVSS | high polyreactivity
28 | QFQLVDSGRGLVQAGGSLRLSCAASGRTFPHYAMGWYRQAPGKERELVAAISSRGGSTYYADSVKGRFTISRDNVKNTVYLQMNSLKPEDTAVYYCAATVGLYRSREYGYWGQGTQVTVSS | low polyreactivity
29 | QFQLVESGGGIVQAGGSLRIAVRPPDLPSTLNHLGWSRQAPGKERSVVAAITRGGSTNYADSVKGRFTISRDNAKNTVYLQMNSLKQEDTAVYYCAAPYAGWRDGGDYWGQGTQVTVSS | low polyreactivity
30 | QFQLVESGGGLVPARGSLRLSCAASGLIFKRNAMGWYRQAPGKERELDASNSGRGGSTYYADSLTGRFTISRDNAKKTVYLQMNSLKPEDTAVYFCAADGPPLGRPSYRLFYGYDYWGQGSQVTVSS | high polyreactivity
31 | QFQLVESGGGLVQAGASLRLSCASSLSTFDHNAMGSYRQAPGKESELVAAISSSGGRTYYADSVKGRFTISRDNAKNTVYLQMNSLKPEDTAVYYCAAVVRRAPEFDYSGQGTQVTVSS | high polyreactivity
32 | QFQLVESGGGLVQAGGILRLSCAASGITFRIYAMGWYRQAPGKERELVAGISSSGSTNYADSVKGRFTISRESAKNTVYLQMNSLKPEDTAVYYCAADAFYKFDYWGQGTQVTESS | high polyreactivity
33 | QFQLVESGGGLVQAGGSHRLSCAASGRIVDYYAMGWYRQAPGKERDLVAAISTSGGSTYYADSVKGRFTISRDNAKITVYLLMNSLKPEDTAVYYCGKDITVTYPVLDYDYWGQCTQVTVSS | low polyreactivity
34 | QFQLVESGGGLVQAGGSLPLSCAASGSIFLWTAMGWYRQAPGKERELVAAITLRGGSTYYADSLKGRFTISRDNAKYAVYLQLNSLKPEDTAVFYCAADVFLLYDYWGQGTQVTVSS | low polyreactivity
35 | QFQLVESGGGLVQAGGSLRLICAASGIIFKLNAMGWYRQAPGIETELVAAITYRGGTTYYADSVKGRFTISRDNAKNTVYVQMNSLKPEDTAVYYCAVAVTSYSSKKLYYWGQGTQVTVSS | low polyreactivity
36 | QFQLVESGGGLVQAGGSLRLSCAASARTFYRYAMGWYRQAPGKERELVASINRGGSTIYADSVKGRFSISRDNAKNTVYLHMNSLKPEDTAVFYCACYCYCYWGQGTQVTVSS | low polyreactivity
37 | QFQLVESGGGLVQAGGSLRLSCAASGFIFSNYAMGWYRQAPGKERELVASISWGGGSTYYADSVKGRFTISRDNAKNTVYLQMNSLKPEDTAVYYCATVRSLYSYDYWGQGTQVTVSS | high polyreactivity
38 | QFQLVESGGGLVQAGGSLRLSCAASGFTFVSNDMGWYRQAPGKVRELVAAISQGGGSTYYADSVKGRFTISRDNAKNTVYLQMNSLKPEDNAVYYCDAEDVYFGYDYSGQGTQVTVSS | low polyreactivity
39 | QFQLVESGGGLVQAGGSLRLSCAASGFTITFYAKGWYRQAPGKERELVAAIRTSDGRTYYADSVKGRFTISRDNAKNTVYLQMNSLKPEDTAVYYCAAQVYRPRARYYEYDYWGQGTQVTVSS | high polyreactivity
40 | QFQLVESGGGLVQAGGSLRLSCAASGFTIYIYAKGWYRQAPGKERELVAAINFRGGSTYYADSVKGRFTISGDNAKKTVYLQLNSLKPEDTAVYYCAAVPRTYSGYYYWGQGTQVSVSS | high polyreactivity
41 | QFQLVESGGGLVQAGGSLRLSCAASGIIDGNARGWYRQAPGKEREFVATISVNDGNTYYADSVKGRFTISRDNAKNTVYLQMNSLKPEDTAVSYCATPTVYVPIPDLGDYWGQGTQVTVSS | low polyreactivity
